Measured values published in publication PMC6640702, “IgG Charge: Practical and Biological Implications” (Antibodies, 2019).

What was measured:
[1] = molecular target: Fc fragment of human IgG4 (IdeS-cleaved; identical for IgG4 and IgG4Pro) (human); assay: AUC; sedimentation velocity, absorbance 280 nm, 20 °C, 40,000 rpm, three concentrations in 1:3 dilutions from 0.5 mg/mL (0.5, 0.167, 0.056 mg/mL); Figure 2 in 10 mM sodium acetate, 50 mM NaCl, pH 5.0; oligomer told from sw against ~50 kDa
[2] = molecular target: the molecule itself; assay: as above

## Fc fragment of human IgG4 (IdeS-cleaved; identical for IgG4 and IgG4Pro) (domain or fragment)
[1]
  stoichiometry N: 2

B1: Fc fragment of human IgG2 (IdeS-cleaved) (domain or fragment)
chain: GPSVFLFPPKPKDTLMISRTPEVTCVVVDVSHEDPEVQFNWYVDGVEVHNAKTKPREEQFNSTFRVVSVLTVVHQDWLNGKEYKCKVSNKGLPAPIEKTISKTKGQPREPQVYTLPPSREEMTKNQVSLTCLVKGFYPSDIAVEWESNGQPENNYKTTPPMLDSDGSFFLYSKLTVDKSRWQQGNVFSCSVMHEALHNHYTQKSLSLSPGK
modifications: asparagine (N)-linked glycoforms G0F, G1F, G2F (told of the intact IgGs)
[2]
  stoichiometry N: 2
